Reference: patent publication US20240156865A1 (BIONOXX, published 2024)
Where two headings read alike, the source gives them in different places.

T1: A56-C-His (recombinant protein A56 with C-terminal His tag, produced in HEK293F cells) (vaccinia virus, UniProt P08714 17-279)
T1 construct: also called UTTA-C-His; UTTA
T1 chain: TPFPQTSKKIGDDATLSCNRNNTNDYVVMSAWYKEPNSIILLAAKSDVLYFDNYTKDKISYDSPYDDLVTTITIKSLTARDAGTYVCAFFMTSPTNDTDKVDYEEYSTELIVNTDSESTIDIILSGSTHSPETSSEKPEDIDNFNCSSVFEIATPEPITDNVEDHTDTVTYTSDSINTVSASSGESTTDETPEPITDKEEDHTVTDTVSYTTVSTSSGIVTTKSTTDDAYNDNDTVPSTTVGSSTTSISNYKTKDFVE


Key:
[1] = target: T1, A56-C-His (recombinant protein A56 with …); experiment: ELISA (row 'KD (M) by ELISA')
[2] = target: T1, A56-C-His (recombinant protein A56 with …); experiment: ELISA on coated A56 (100 ng), fit; R square 0.9953
[3] = target: T1, A56-C-His (recombinant protein A56 with …); experiment: OCTET (row 'KD (M) by OCTET'; the legend calls it SPR)
[4] = target: T1, A56-C-His (recombinant protein A56 with …)
[5] = target: T1, A56-C-His (recombinant protein A56 with …)
[6] = target: T1, A56-C-His (recombinant protein A56 with …); experiment: OCTET (row 'KD (M) by OCTET'; the legend calls it SPR)
[7] = target: T1, A56-C-His (recombinant protein A56 with …); experiment: ELISA on coated A56 (100 ng), fit; R square 0.9821
[8] = target: T1, A56-C-His (recombinant protein A56 with …); experiment: ELISA (row 'KD (M) by ELISA')
[9] = target: T1, A56-C-His (recombinant protein A56 with …); experiment: ELISA (row 'KD (M) by ELISA')
[10] = target: T1, A56-C-His (recombinant protein A56 with …); experiment: ELISA on coated A56 (100 ng), fit; R square 0.9942
[11] = target: T1, A56-C-His (recombinant protein A56 with …); experiment: OCTET (row 'KD (M) by OCTET'; the legend calls it SPR)
[12] = target: T1, A56-C-His (recombinant protein A56 with …); experiment: as above
[13] = target: T1, A56-C-His (recombinant protein A56 with …); experiment: ELISA (row 'KD (M) by ELISA')
[14] = target: T1, A56-C-His (recombinant protein A56 with …); experiment: ELISA on coated A56 (100 ng), fit; R square 0.9969
[15] = target: T1, A56-C-His (recombinant protein A56 with …); experiment: OCTET (row 'KD (M) by OCTET'; the legend calls it SPR)
[16] = target: T1, A56-C-His (recombinant protein A56 with …); experiment: ELISA (row 'KD (M) by ELISA')
[17] = target: T1, A56-C-His (recombinant protein A56 with …); experiment: ELISA on coated A56 (100 ng), fit; R square 0.9274

| Binder | Kd [4] [nM] | koff [4] [s⁻¹] | kon [5] [M⁻¹ s⁻¹] | also measured |
| --- | --- | --- | --- | --- |
| anti-A56 antibody Ab19 (antibody, V domains shown, also called SA2044; A56-02C07) VH: QVQLVESGAEVRRPGSSVKVSCKTSGVTFSGYVLSWVRQAPGHGLEWMGRIIPLIDVENYAREFQGRMKITADKSTNTVYMELNNLRSEDTAVYYCAKSVVRGLDYYYYGFDVWGQGTTVTVSS VL: SYELTQPPSLSVAPGKTARITCGGNNIGSKSVHWYQQKPGQAPRLVTYYDGNRPSGIPERFSGSNSGNTATLIISRVEAGDEADYYCQVWDSSSDQGVFGTGTKVTVL | 0.438 | 2.47e-05 | 56400 | Kd [1]: 0.044 nM; Kd [2]: 0.044 nM; Kd [3]: 0.438 nM |
| anti-A56 antibody Ab16 (antibody, V domains shown, also called SA2041; A56-02B08) VH: QVQLQQSGPGLVKPSQTLSLTCAISGDSVSSNSAAWNWIRQSPSRGLEWLGRTYYRSKWYNDYAVSVKSRITINPDTSKNQFSLQLNSVTAVDTAVYYCAKSYAGPISYYYYGLDVWGQGTTVTVSS VL: QSALTQPASVSGSPGQSVTISCTGTSSDIGRYNLVSWYQQHPGKAPKLMIYGGSKRPSGVSNRFSGSNSDNTASLTISGLRAEDEADYYCSSYASSSTPYVFGTGTKVTVL | 2.28 | 0.000561 | 246000 | Kd [6]: 0.228 nM; Kd [7]: 0.024 nM; Kd [8]: 0.024 nM |
| anti-A56 antibody Ab18 (antibody, V domains shown, also called SA2043; A56-02C06) VH: QVQLVESGGGLVQPGKSLRLSCAASGFTFSTYGMTWVRQAPGKGLEWVSGISGGGSSTNYADSVKGRFIISRDNSNNTLYLQMNSLRAEDTAVYYCARWGVMLSFDYWGQGTPVTVSS VL: DIQMTQSPSTLPASVGDRVTITCRASYSVSPWLAWYQQKPGKAPKLLIYKASTLESGVPSRFSGSGSGTEFTLTISSLQPDDFATYYCQQFNSYMMYTFGQGTKLEIK | 0.196 | 1.96e-05 | 100000 | Kd [9]: 0.026 nM; Kd [10]: 0.026 nM; Kd [11]: 0.196 nM |
| anti-A56 antibody Ab01 (antibody, V domains shown, also called SA2026; A56-01A02) VH: QMQLVQSGAEVKKPGSSVKVSCKASGGTFSSYAISWVRQAPGQGLEWMGGIIPIFGTANYAQKFQGRVTMTRDTSTSTVYMELSSLKSEDTAVYYCARFVFGSGTYLDSWGQGTLVTVSS VL: not shown | 0.492 | 9.67e-05 | 196000 | Kd [12]: 0.492 nM; Kd [13]: 0.029 nM; Kd [14]: 0.029 nM |
| anti-A56 antibody Ab13 (antibody, V domains shown, also called SA2038; A56-02A02) VH: QMQLVESGAEVKKTGSSVKVSCKASGDTLTYRFLHWVRQAPGQAPEWMGWITPFNDNTNYAQKFQDRVTITRDRSMSTAYMELSSLRSEDTAVYYCATGGGNNYYGMEVWGQGTPITVSS VL: SYELTQPLSLSVSPGQTASITCSGDKLGDKFTSWYQQQPGQSPVLVIYQDAKRPSGIPERFSGSNSGSTATLTISGTQSMDEADYYCQAWDSSSVVFGGGTKLTVL | 0.739 | 8.26e-05 | 112000 | Kd [15]: 0.739 nM; Kd [16]: 0.033 nM; Kd [17]: 0.033 nM |
